Test results taken from patent US20260193316A1.

Assays:
Test in all cases: cell-based or functional assay
[1] = target: C1C252 (human) (UniProt P11836)
[2] = target: CD20WT (wild type amino acidic sequence of human CD20) (human) (UniProt P11836)
[3] = target: C1C3 (human) (UniProt P11836)

Measured: reduction in the hCD20+ cell population in mice (GFP+ T cells in blood)

2H7 mouse anti-human CD20 antibody
65%: all assays above
